Source: patent US20070026008A1

Biological target: mouse B6 class I antigens (mouse)
Assay: Binding of 9-mer peptides within p117-139 to mouse B6 (H-2^b) class I; RMA-S cell MHC stabilisation, flow cytometry

| Binding Affinity to Mouse MHC Class I [%] | Binder |
| --- | --- |
| 2 | SQASSGQAR [WT1 peptide P118-126 (…)] |
| 1 | PNAPYLPSC [WT1 peptide P129-137 (…)] |
| 1 | QARMFPNAP [WT1 peptide P124-132 (…)] |
| 1 | SSGQARMFP [WT1 peptide P121-129 (…)] |
| 1 | ARMFPNAPY [WT1 peptide P125-133 (…)] |
| 79 | NAPYLPSCL [WT1 peptide P130-138 (…)] |
| 2 | QASSGQARM [WT1 peptide P119-127 (…)] |
| 1 | FPNAPYLPS [WT1 peptide P128-136 (…)] |
| 1 | APYLPSCLE [WT1 peptide P131-139 (…)] |
| 2 | PSQASSGQA [WT1 peptide P117-125 (…)] |
| 2 | MFPNAPYLP [WT1 peptide P127-135 (…)] |
| 1 | ASSGQARMF [WT1 peptide P120-128 (…)] |

Biological target: mouse B6 class I antigens (mouse)
Assay: RMA-S cell MHC stabilisation, peptide 25 ug/ml, flow cytometry with FITC anti-D^b or anti-K^b; % increase of MFI over medium alone

| Binding Affinity to Mouse MHC Class I [%] | Binder |
| --- | --- |
| 52 | SCLESQPAI [WT1 peptide human p136-144 (…)] |
| 1.2 | QMTSQLECM [WT1 peptide p228-236 (…)] |
| 33.6 | CMTWNQMNL [WT1 peptide p235-243 (…)] |
| 1 | NQMNLGATL [WT1 peptide p239-247 (…)] |
| 2.2 | ALLPAVPSL [WT1 peptide human p10-18 (…)] |
| 1.2 | GCNKRYFKL [WT1 peptide p329-337 (…)] |
| 0.8 | YSSDNLYQM [WT1 peptide p221-229 (…)] |
| 5.8 | NLYQMTSQL [WT1 peptide p225-233 (…)] |
